Measured values from publication PMC4813486.
“And” between values parts separate entries of the source, which are not always exact repeats. Equal values may be shown once.

Columns and labels:
[1] = molecular target: full-length β2-microglobulin (UniProt P61769); assay: native MS; ion mobility MS, 15 μM protein, 100 mM ammonium acetate, pH 5
[2] = molecular target: full-length β2-microglobulin (UniProt P61769); assay: native MS; ion mobility MS, 30 μM protein, 100 mM ammonium acetate, pH 5 (data not shown)
[3] = molecular target: full-length β2-microglobulin (UniProt P61769); assay: cross-linking; BS3-d0/d4 1:1, 25 °C, 1 h; gel electrophoresis (NuPAGE); bands digested in-gel with trypsin; LC-MS/MS

## full-length β2-microglobulin (from UniProt P61769 21-119) (natural protein)
[1]
  stoichiometry N: 2
[2]
  stoichiometry N: 3 and 4
[3]
  stoichiometry N: 2 and 3 and 4
